We go through 7 sequences from the supplement of paper PMC11246515.

± gives the standard deviation of the averaged measurements.

The nature of this data set: total protein half-life in vivo (active degradation + dilution); higher = more stable protein.
Where [1] appears, read: E. coli NCM3722 delta-clpP delta-lon delta-hslV, growth: N-lim chemostat, doubling time 6 h.
Where [2] appears, read: E. coli NCM3722 delta-clpP, growth: N-lim chemostat, doubling time 6 h.
[3] abbreviates: E. coli NCM3722 delta-hslV, growth: N-lim chemostat, doubling time 6 h.
The mark [4] stands for this setting: E. coli NCM3722 delta-lon, growth: N-lim chemostat, doubling time 6 h.
Where [5] appears, read: E. coli NCM3722 delta-smpB, growth: N-lim chemostat, doubling time 6 h.
Where [6] appears, read: wild type E. coli NCM3722, growth: C-lim chemostat, doubling time 3 h.
[7] abbreviates: wild type E. coli NCM3722, growth: C-lim chemostat, doubling time 6 h.
[8] abbreviates: wild type E. coli NCM3722, growth: C-lim chemostat, doubling time 12 h.
[9] abbreviates: wild type E. coli NCM3722, growth: N-lim chemostat, doubling time 6 h.
[10] abbreviates: wild type E. coli NCM3722, growth: N-lim chemostat, doubling time 12 h.
Setting [11] is: wild type E. coli NCM3722, growth: P-lim chemostat, doubling time 6 h.
The mark [12] stands for this setting: wild type E. coli NCM3722, growth: P-lim chemostat, doubling time 12 h.

Regarding “MFDRYDAGEQAVLVHIYFTQDKDMEDLQEFESLVSSAGVEALQVITGSRKAPHPKYFVGEGKAVEIAEAVKATGASVVLFDHALSPAQERNLERLCECRVIDRTGLILDIFAQRARTHEGKLQVELAQLRHLATRLVRGWTHLERQKGGIGLRGPGETQLETDRRLLRNRIVQIQSRLERVEKQREQGRQSRIKADVPTVSLVGYTNAGKSTLFNRITEARVYAADQLFATLDPTLRRIDVADVGETVLADTVGFIRHLPHDLVAAFKATLQETRQATLLLHVIDAADVRVQENIEAVNTVLEEIDAHEIPTLLVMNKIDMLEDFEPRIDRDEENKPNRVWLSAQTGAGIPQLFQALTERLSGEVAQHTLRLPPQEGRLRSRFYQLQAIEKEWMEEDGSVSLQVRMPIVDWRRLCKQEPALIDYLI”, the “total protein half-life in vivo” value runs as follows: under setting [1], 5.01 ± 0.4 h; under setting [2], 4.19 ± 0.56 h; under setting [3], 3.18 ± 0.019 h; under setting [4], 3.87 ± 0.12 h; under setting [5], 2.77 ± 0.12 h; under setting [6], 2.34 ± 0.078 h. In addition, the “total protein half-life in vivo” value is 4.15 ± 0.4 h under setting [7]; 5.93 ± 0.57 h under setting [8]; 3.31 ± 0.19 h under setting [9]; 4.68 ± 0.19 h under setting [10]; 3.34 ± 0.12 h under setting [11]; 5.9 ± 0.61 h under setting [12].
Regarding “MVRRLTSPRLEFEAAAIYEYPEHLRSFLNDLPTRPGVYLFHGESDTMPLYIGKSVNIRSRVLSHLRTPDEAAMLRQSRRISWICTAGEIGALLLEARLIKEQQPLFNKRLRRNRQLCALQLNEKRVDVVYAKEVDFSRAPNLFGLFANRRAALQALQTIADEQKLCYGLLGLEPLSRGRACFRSALKRCAGACCGKESHEEHALRLRQSLERLRVVCWPWQGAVALKEQHPEMTQYHIIQNWLWLGAVNSLEEATTLIRTPAGFDHDGYKILCKPLLSGNYEITELDPANDQRAS”, the “total protein half-life in vivo” value under setting [1] was 5.53 ± 1.1 h; the “total protein half-life in vivo” value under setting [3] worked out at 1.43 h; the “total protein half-life in vivo” value under setting [5] was 0.89 h; the “total protein half-life in vivo” value under setting [6] was found to be 1.06 h; the “total protein half-life in vivo” value under setting [8] was 1.93 h; the “total protein half-life in vivo” value under setting [9] is 1.6 ± 0.079 h. Further, the “total protein half-life in vivo” value under setting [11] was determined as 1.28 h.
Consider “MKRAFIMVLDSFGIGATEDAERFGDVGADTLGHIAEACAKGEADNGRKGPLNLPNLTRLGLAKAHEGSTGFIPAGMDGNAEVIGAYAWAHEMSSGKDTPSGHWEIAGVPVLFEWGYFSDHENSFPQELLDKLVERANLPGYLGNCHSSGTVILDQLGEEHMKTGKPIFYTSADSVFQIACHEETFGLDKLYELCEIAREELTNGGYNIGRVIARPFIGDKAGNFQRTGNRHDLAVEPPAPTVLQKLVDEKHGQVVSVGKIADIYANCGITKKVKATGLDALFDATIKEMKEAGDNTIVFTNFVDFDSSWGHRRDVAGYAAGLELFDRRLPELMSLLRDDDILILTADHGCDPTWTGTDHTREHIPVLVYGPKVKPGSLGHRETFADIGQTLAKYFGTSDMEYGKAMF [P0A6K6]”, for which the “total protein half-life in vivo” value runs as follows: under setting [1], 4.63 ± 0.33 h; under setting [2], 4.5 ± 0.27 h; under setting [3], 4.39 ± 0.2 h; under setting [4], 4.1 ± 0.049 h; under setting [5], 3.41 ± 0.21 h; under setting [6], 2.41 ± 0.5 h. Also, the “total protein half-life in vivo” value amounted to 4.68 ± 0.54 h under setting [7]; 9 ± 0.31 h under setting [8]; 4 ± 0.39 h under setting [9]; 6.61 ± 0.31 h under setting [10]; 3.91 ± 0.25 h under setting [11]; 7.26 ± 0.64 h under setting [12].
In the case of “MKIRSLSRFVLASTMFASFTASAVPGLWQQGYGQGNAEYSVTDASGKMFTINCTGNPDQNGIYQHSVFLILAGDKTVSSHDDSTGITVVMDHKQYAIPSTLGWRNGDNAWFSFIMDIRKARQFDVYVNDQKVGSFNPDVRNAQKVLPTLADCTND”, the “total protein half-life in vivo” value under setting [6] was determined as 1.45 h.
In the case of “MPDQTQQFSFKVLTINIHKGFTAFNRRFILPELRDAVRTVSADIVCLQEVMGAHEVHPLHVENWPDTSHYEFLADTMWSDFAYGRNAVYPEGHHGNAVLSRYPIEHYENRDVSVDGAEKRGVLYCRIVPPMTGKAIHVMCVHLGLREAHRQAQLAMLAEWVNELPDGEPVLVAGDFNDWRQKANHPLKVQAGLDEIFTRAHGRPARTFPVQFPLLRLDRIYVKNASASAPTALPLRTWRHLSDHAPLSAEIHL [P0AAW1]”, the “total protein half-life in vivo” value under setting [1] amounted to 6.17 ± 0.23 h; the “total protein half-life in vivo” value under setting [2] is 6.2 ± 0.43 h; the “total protein half-life in vivo” value under setting [4] amounted to 5.85 ± 0.22 h; the “total protein half-life in vivo” value under setting [5] turned out to be 5.57 ± 0.47 h; the “total protein half-life in vivo” value under setting [6] stood at 2.68 ± 0.41 h; the “total protein half-life in vivo” value under setting [7] was 4.96 ± 0.51 h. For the same sequence, the “total protein half-life in vivo” value runs as follows: under setting [8], 10.9 ± 3 h; under setting [9], 5.11 ± 0.57 h; under setting [10], 13.9 ± 0.67 h; under setting [11], 5.16 ± 0.24 h; under setting [12], 11.5 ± 0.52 h.
As to “MVFRIASSPYTHNQRQTSRIMLLVLLAAVPGIAAQLWFFGWGTLVQILLASVSALLAEALVLKLRKQSVAATLKDNSALLTGLLLAVSIPPLAPWWMVVLGTVFAVIIAKQLYGGLGQNPFNPAMIGYVVLLISFPVQMTSWLPPHEIAVNIPGFIDAIQVIFSGHTASGGDMNTLRLGIDGISQATPLDTFKTSVRAGHSVEQIMQYPIYSGILAGAGWQWVNLAWLAGGVWLLWQKAIRWHIPLSFLVTLALCAMLGWLFSPETLAAPQIHLLSGATMLGAFFILTDPVTASTTNRGRLIFGALAGLLVWLIRSFGGYPDGVAFAVLLANITVPLIDYYTRPRVYGHRKG”, the “total protein half-life in vivo” value was 7.06 h under setting [1]; greater than 4 h under setting [6]; 13 ± 0.93 h under setting [8]; 6.53 h under setting [9]; 9.64 h under setting [10]; 13 ± 1.1 h under setting [12].
Take “MNTVCTHCQAINRIPDDRIEDAAKCGRCGHDLFDGEVINATGETLDKLLKDDLPVVIDFWAPWCGPCRNFAPIFEDVAQERSGKVRFVKVNTEAERELSSRFGIRSIPTIMIFKNGQVVDMLNGAVPKAPFDSWLNESL [P0AGG4]”: the “total protein half-life in vivo” value under setting [1] stood at 5.02 ± 0.31 h; the “total protein half-life in vivo” value under setting [2] is 2.89 ± 0.54 h; the “total protein half-life in vivo” value under setting [3] is 2.37 ± 0.6 h; the “total protein half-life in vivo” value under setting [4] was 5.32 ± 0.43 h; the “total protein half-life in vivo” value under setting [5] worked out at 2.48 ± 1.3 h; the “total protein half-life in vivo” value under setting [6] is 1.6 ± 0.2 h. Further, the “total protein half-life in vivo” value came out at 3.09 ± 0.67 h under setting [7]; 5.03 ± 1.5 h under setting [8]; 2.26 ± 0.083 h under setting [9]; 3.44 ± 0.91 h under setting [10]; 2.24 ± 0.53 h under setting [11]; 4.54 ± 0.14 h under setting [12].
